Measurements published in the supplement of paper PMC12764529.
± gives the half width of the 95% confidence interval.

Legend:
[1] = folding stability dG unfold from trypsin proteolysis; higher = more stable
How it was run: (§1)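 Bayesian fitting of sequencing counts gave K50 for each design. Unfolding free energy followed by setting this against a sequence-predicted unfolded-state K50 and a shared folded-state K50, either per protease or with trypsin and chymotrypsin combined. The designs, under 80 residues and lacking cysteine, were digested in a PA-tagged cDNA display format at 11 threefold-diluted protease concentrations and without protease, and only those with AlphaFold2 dimer inter-PAE above 15 were kept.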

[2] = folding stability dG unfold (combined trypsin and chymotrypsin); higher = more stable
How it was run: as §1

[3] = folding stability dG unfold from chymotrypsin proteolysis; higher = more stable
How it was run: as §1

Sequence | folding stability dG unfold [1] [kcal/mol] | folding stability dG unfold [2] [kcal/mol] | folding stability dG unfold [3] [kcal/mol]
AATTATVTLPFAPDDLDAAVEAARELASTLPPDSRITVAVPAPDGSTGTVTATVHPDGTIDVTVSPAAAPAS [r1_350_TrMRF] | 0.731 ± 0.019 | 1.19 ± 0.1 | 1.47 ± 0.04
AELEAEVVSVEEVNGETVVVVRVDGELVVRTFRPPPPRPLSLEELKRLAEELREQNPELAEEAEKLLEALAS [r1_330_TrROS_Hall] | 2.49 ± 0.12 | 2.33 ± 0.26 | 2.19 ± 0.11
AKLPEGAKVVIEVRRADDGETRTITLDDDVTITITYDKDTGKVEVRAYVFDKNGKLVAEETLTLSLEELLSS [r1_380_TrROS_Hall] | 1.77 ± 0.027 | 3.1 ± 0.067 | 3.508 ± 0.017
APARPPDWVLVDVPVDPTSGLITVHAGDATVTVDLPDGRPAVFYFPRSVSPSDLLAWVVGKARELAEALRAS [r1_25_TrMRF] | 1.9 ± 0.085 | 2.23 ± 0.16 | 2.32 ± 0.19
APKPPVLVVEVVVLFPKEDPEVRELTVEEIAELAAEELTAHPDFKPVKVEVLSAEEHPDGYYTVTLKVTHVS [r1_484_TrMRF] | 2.51 ± 0.15 | 2.42 ± 0.1 | 2.4 ± 0.036
DLDITDPALVPVPERNYPFTVVSLTGPGNGAVTVELTLDGQTVSATVDPSTGTVTFTFPGTGASAVATADPS [r1_125_TrMRF] | 1.69 ± 0.087 | 1.68 ± 0.12 | 1.61 ± 0.08
DYRVVIEDLELVPAPPGTRISMPAWVDHDGVRYGEVESYVDPETGTVTLRLLVEPDGEPRELTLTLPVPPES [r1_47_TrMRF] | 0.545 ± 0.034 | 0.625 ± 0.061 | 0.629 ± 0.061
EEEVEELAKKLEEELRKKLRELFPEMSEEDIKIEEIEVEKTVTVEVNGEKKEIKVKVKIKMSEEVLERLKKS [r1_299_TrROS_Hall] | 1.98 ± 0.14 | 1.72 ± 0.42 | 2.09 ± 0.33
EITIRNPNGMEVKKVEFDPPDSTIKFEFRMPDYYVKIEFQIYPVGGGWVIPIKIEIVPIPPTPAQRKKMQES [r1_154_TrROS] | 1.44 ± 0.13 | 2.85 ± 0.25 | 3.4 ± 0.17
EVETYPDGTVVTTLPPEVTADIPADEPVNLRTLIFDPDGYLYLSTATRTPDGTVTYTVSITPIPVGPELLLS [r1_394_JUSTAS] | 1.44 ± 0.029 | 1.54 ± 0.077 | 1.63 ± 0.083
GFDEAELKKLLEEKAAELEKKGYKVLKTSIEPVPDGTYGGKIGNKTITHPTPNGLTYSVSVYYEKVSPKKKS [r1_31_JUSTAS] | 0.232 ± 0.13 | 0.351 ± 0.16 | 0.331 ± 0.25
GFVLIPFRLDDPDVTAGEIAEEVEKALPPEYGPLRLRVFFEDGSVLELEPGEKLGEHFEPDDEILVLVEGDS [r1_56_TrMRF] | 1.24 ± 0.042 | 1.22 ± 0.14 | 1.37 ± 0.12
GLAPRVYEVDALVTDENGVPRLYRVLVVETPLPDGTYRAVAFARDLDTTETRVLTLVSDRAVIGPDVPLTAS [r1_14_TrMRF] | 2.07 ± 0.044 | 2.21 ± 0.15 | 2.24 ± 0.12
GMAPKTYTKEVEIKDSSGKPIKYKVTVTETALPDGSSESTITLTDPNSSKTTTINLSSPGKGLTPDDKILLS [r1_14_JUSTAS] | 0.562 ± 0.019 | 0.899 ± 0.075 | 1.09 ± 0.087
GMIVEIVESPEGTVTLYEVLLPGGTPILVGAADEEKLRERVAKELGVSFEKLKITKTTTLSPEELAALLAAS [r1_119_JUSTAS] | 1.4 ± 0.02 | 1.66 ± 0.14 | 1.73 ± 0.053
GMSVTSYETDPNTGGPSISISSAPDPKTGLLSAPVTVYDPKTGQSKTINLTATSSEELAAKIAELLPASLLS [r1_156_JUSTAS] | 1.39 ± 0.024 | 0.97 ± 0.098 | 0.166 ± 0.17
GMVEVTEERFEPETGKRIVTIRAPGRDLTVTFDPSTGIATFYDPSDGRTFTVPFTSLEEAVEAAKELALEES [r1_177_JUSTAS] | 3.1 ± 0.07 | 4.47 ± 0.11 | 4.81 ± 0.11
GPMTVSTKTSTKTYFDPETGVETVVEPVTVTVTFPTSPTVTYTTTVTTTTKVERLPDGPLRTETTTTTTVSS [r1_296_JUSTAS] | -0.135 ± 0.17 | 0.0169 ± 0.14 | -0.305 ± 0.38
GPPLPVEVDAEVDVVPLPGGPALVVRRPVRFPVTRRIVVVEVVRLPDGSVVARVDVYDPGDGRPRTFTLPLS [r1_261_TrMRF] | 0.795 ± 0.04 | 1.9 ± 0.043 | 2.373 ± 0.021

Sequence | folding stability dG unfold [1] [kcal/mol] | folding stability dG unfold [2] [kcal/mol] | folding stability dG unfold [3] [kcal/mol]
GSEIKAGRARSSDGTGRIRVVLEREDGSSVEFELDLPGLPGDTFYLDLPESLPLKAKETWVYVDDKPYPVTS [r1_70_TrMRF] | 0.665 ± 0.054 | 1.08 ± 0.067 | 1.25 ± 0.037
GVVRPLGDPNGQLSIVATDPEGNLLVKALVPNDEAQVEAAKKELLAAMPGLDEKEVVFSIYDPLTGKTKILS [r1_55_JUSTAS] | 1.07 ± 0.1 | 1.54 ± 0.12 | 1.61 ± 0.025
GYRPALAVVELGPNSRLLLRPPEGPSVEIEVESPEEALAAALKLLPKDQPLVLEVFDEGKLIETIPIEIPPS [r1_276_TrMRF] | 0.973 ± 0.036 | 1.55 ± 0.095 | 1.87 ± 0.069
IEEIKNFAKKHGFNVKIEPVKVDSEEEAKEEAEDHEKKNGYPTIIIKNPENGEIVWVIKIRPPPPPPGQPPS [r1_179_TrROS] | 2.51 ± 0.22 | 3.18 ± 0.31 | 3.89 ± 0.17
IRGMPVEEIKEIARDFFRKHGMKVTTVEIVPTPNGMTQVDIEIEPPDKGRRYRIDIYVPEDGMVQIDIEPYS [r1_460_TrROS] | 2.23 ± 0.071 | 2.4 ± 0.24 | 2.54 ± 0.13
IVISPSMLRDARRQGIPKELLKKAKNVIIWSSNGNPEWAKELKEWPGVKKIKPVPPGDPDKQKDADHVIHFS [r1_248_TrROS] | -0.554 ± 0.55 | -0.482 ± 0.29 | -0.673 ± 0.49
KGVVVGPDEPLVSDDGKLVVFPNAQITYDPKTGKPTIAFHVDPEALAQGDPEALKGLRDLAKELNIDELTPS [r1_438_TrMRF] | -0.156 ± 0.1 | 0.692 ± 0.12 | 1.03 ± 0.044
KIHILPPGEPAKDPNGKTYEFPNMRIHRNPKNGKPTIYIPMDPEARDQGNPEALQWLRELVEELNIDKVEPS [r1_438_TrROS] | -0.623 ± 0.45 | -0.156 ± 0.16 | 0.0516 ± 0.16
KVFSVDELRELAKKGKLKELLKKNKDVTIVVEEGSPEELKELKALPEVKEIKVVPKEDEEKIKKAKLVIKVS [r1_248_TrROS_Hall] | 0.312 ± 0.17 | – | 0.0786 ± 0.69
MPTIRVKIYRDGKLVRELELPAEEVEKMSEEELLEKVRELLEEEKGETYKVEVEIDGKKFTFEIKLPEKEES [r1_477_TrROS_Hall] | 4.33 ± 0.39 | – | 4.8 ± 0.24
SAGGMLTPEEIERLARELEEAIRRGDRERAEELLEKLEELLKQAEEEGDEELVERLKKLLERAKKALESAGG [r13_137_TrROS_Hall] | 4.85 ± 0.55 | – | 2.99 ± 0.19
SAGGSAGGSAGEIDKIKVEVEFEFPVRVKVGDKEYEFLVKVKYTIGPDGKIEVKSIELFPSAGGSAGGSAGG [r11_95_TrMRF] | 3.69 ± 0.24 | – | 4.76 ± 0.38
SAGGSAGGSAGGSFSVSVSYDPSTGNIVIRIDLPDGSTITITINPATGEISVSSSSSSSSAGGSAGGSAGGS [r10_127_TrMRF] | 4.13 ± 0.28 | – | 3.83 ± 0.25
SAGGSMKTYKLESEEEIEKLIKELSPEKYIVGVKGNPDGTPVVYIFPKSEPEKLKKLGVKEIIPVKSAGGSA [r2_351_JUSTAS] | -0.442 ± 0.46 | – | -0.109 ± 0.57
SAGKEIKIRIEVTRKVKNPETGEEVEEKEVVEITLSEEELKKGKSLEELAKELASKYPGAKVKIVEIESAGG [r19_110_TrROS_Hall] | 4.43 ± 0.48 | – | 3.08 ± 0.49
SAGMTVEVEIELPPGMTEEERLEEVKALVEELARALLPPGWKVTVKEIEVEEKDGKLVVKVKIEIEPEESAG [r5_146_TrROS_Hall] | 3.96 ± 0.28 | – | 2.99 ± 0.22
SDTVHIPIDPNDPDEIKDLIKNLPPGWTVHIWWPDKNGEWPVVTIKVKPPPPPPIPPEDLPEEQRKEMKKSA [r9_1103_TrROS] | 0.398 ± 0.24 | – | 0.718 ± 0.11
SIEELAKKFPNVTVTVEKTEDGEVKITITVKTSEEQKKELQEKLKELAKKLAEELDLKVEIEIKVLPAPPSA [r9_1099_TrROS_Hall] | 3.86 ± 0.26 | – | 3.7 ± 0.38
